One molecule from patent US5635384 (DowElanco, dated 1997) can be followed below.

The target in the assay is T1, maize αβ RIP β fragment (maize).
T1 chain: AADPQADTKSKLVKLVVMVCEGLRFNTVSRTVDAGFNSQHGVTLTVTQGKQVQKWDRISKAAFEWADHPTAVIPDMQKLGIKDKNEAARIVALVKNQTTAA
Kind of assay: reverse phase and ion exchange chromatography.

B1: maize αβ RIP α fragment (other)
chain: KRIVPKFTEIFPVEDANYPYSAFIASVRKDVIKHCTDHKGIFQPVLPPEKKVPELWFYTELKTRTSSITLAIRMDNLYLVGFRTPGGVWWEFGKDGDTHLLGDNPRWLGFGGRYQDLIGNKGLETVTMGRAEMTRAVNDLAKKKK
Consider B1, for which the binding result is given as “binds”.
